Experiment [1] addresses pol-βwt (full-length DNA polymerase β) fused to the yeast Gal4 activation domain (pGAD-C3-pol-βwt) (yeast; human, UniProt P06746 1-335). The experiment is described as follows: yeast two-hybrid (growth on SD-ULH medium with 5 mM 3-amino-1,2,4-triazole).
The target of experiment [2] is pol-βMut(Set-1) (T79A/K81A/R83A) fused to the yeast Gal4 activation domain (pGAD-C3-pol-βMut(Set-1)) (yeast; human, UniProt P06746 1-335). The description is as above.

B1: APC(I-A,Y-A) (amino acids 1200-1324; I1259A, Y1262A) fused to the yeast Gal4 DNA-binding domain (pGBDU-C3-APC(I-A,Y-A)) (other)
chain: SSSGQSSKTEHMSSSSENTSTPSSNAKRQNQLHPSSAQSRSGQPQKAATCKVSSINQETAQTACVEDTPICFSRCSSLSSLSSAEDEIGCNQTTQEADSANTLQIAEIKEKIGTRSAEDPVSEVP
notes: also called mutant APC (I-A,Y-A); mutant DRI-domain
Regarding B1, the binding result in experiment [1] is recorded as “no binding”.

B2: APCwt (amino acids 1190-1328) fused to the yeast Gal4 DNA-binding domain (pGBDU-C3-APCwt) (other)
chain: MKLLSSIEQACDICRLKKLKCSKEKPKCAKCLKNNWECRYSPKTKRSPLTRAHLTEVESRLERLEQLFLLIFPREDLDMILKMDSLQDIKALLTGLFVQDNVNKDAVTDRLASVETDMPLTLRQHRISATSSSEESSNKGQRQLTVSSQKQSFSFSKSSSGQSSKTEHMSSSSENTSTPSSNAKRQNQLHPSSAQSRSGQPQKAATCKVSSINQETIQTYCVEDTPICFSRCSSLSSLSSAEDEIGCNQTTQEADSANTLQIAEIKEKIGTRSAEDPVSEVPAVSQ
notes: Yeast two-hybrid bait, expressed in S. cerevisiae PJ69-4A; also called APC wild-type (wt)
Turning to B2, the binding result in experiment [2] is given as “no binding”.

Values taken from patent US9144596 (UNIVERSITY OF FLORIDA RESEARCH FOUNDATION, dated 2015).
